{"source": "patent US20220177594A1", "about": "(ZOETIS SERVICES, published 2022)", "binders": {"B1": {"name": "Mu_09E09_VH (SEQ ID NO: 35)_Y57A (antibody, V domains shown)", "VH": "DVKLVESGEGLVKPGGSLKLSCAASGFTFSSYAMSWVRQTPEKRLEWVAYISSGGDAIYYADTVKGRFTISRDNARNTLYLQMSSLKSEDTAMYYCTRDPITGTFAYWGQGTLVTVSA", "VL": "DLQMTQTTSSLSASLGDRVTISCRASQDINNYLNWYQQKPDGTVKLLIYYTSTLHSGVPSRFSGSGSGTDYSLTISNLEQEDIATYFCQQGNTLPWTFGGGTKLEIKR"}, "B2": {"name": "Mu_09E09_VH (SEQ ID NO: 35)_Y59A (antibody, V domains shown)", "VH": "B1 VH with A57Y, Y59A", "VL": "B1 VL"}, "B3": {"name": "Mu_09E09_VH (SEQ ID NO: 35)_D99A (antibody, V domains shown)", "VH": "B1 VH with A57Y, D99A", "VL": "B1 VL"}, "B4": {"name": "Mu_09E09_VH (SEQ ID NO: 35)_P100A (antibody, V domains shown)", "VH": "B1 VH with A57Y, P100A", "VL": "B1 VL"}, "B5": {"name": "Mu_09E09_VH (SEQ ID NO: 35)_I101A (antibody, V domains shown)", "VH": "B1 VH with A57Y, I101A", "VL": "B1 VL"}, "B6": {"name": "Mu_09E09_VH (SEQ ID NO: 35)_T102A (antibody, V domains shown)", "VH": "B1 VH with A57Y, T102A", "VL": "B1 VL"}, "B7": {"name": "Mu_09E09_VH (SEQ ID NO: 35)_F105A (antibody, V domains shown)", "VH": "B1 VH with A57Y, F105A", "VL": "B1 VL"}, "B8": {"name": "Mu_09E09_VL (SEQ ID NO: 37)_Y32A (antibody, V domains shown)", "VH": "B1 VH with A57Y", "VL": "B1 VL with Y32A"}, "B9": {"name": "Mu_09E09_VL (SEQ ID NO: 37)_N34A (antibody, V domains shown)", "VH": "B1 VH with A57Y", "VL": "B1 VL with N34A"}, "B10": {"name": "Mu_09E09_VL (SEQ ID NO: 37)_Y50A (antibody, V domains shown)", "VH": "B1 VH with A57Y", "VL": "B1 VL with Y50A"}, "B11": {"name": "Mu_09E09_VL (SEQ ID NO: 37)_Q90A (antibody, V domains shown)", "VH": "B1 VH with A57Y", "VL": "B1 VL with Q90A"}, "B12": {"name": "Mu_09E09_VL (SEQ ID NO: 37)_G91A (antibody, V domains shown)", "VH": "B1 VH with A57Y", "VL": "B1 VL with G91A"}, "B13": {"name": "Mu_09E09_VL (SEQ ID NO: 37)_N92A (antibody, V domains shown)", "VH": "B1 VH with A57Y", "VL": "B1 VL with N92A"}, "B14": {"name": "Mu_09E09_VL (SEQ ID NO: 37)_L94A (antibody, V domains shown)", "VH": "B1 VH with A57Y", "VL": "B1 VL with L94A"}, "B15": {"name": "Mu_09E09_VL (SEQ ID NO: 37)_W96A (antibody, V domains shown)", "VH": "B1 VH with A57Y", "VL": "B1 VL with W96A"}, "B16": {"name": "Mu_10F07_VH (SEQ ID NO: 39)_D99A (antibody, V domains shown)", "VH": "B1 VH with A49T, A57Y, I58F, D99A", "VL": "B1 VL with L2I, N30T, Y71F, N92H, T93M"}, "B17": {"name": "Mu_10F07_VH (SEQ ID NO: 39)_I101A (antibody, V domains shown)", "VH": "B1 VH with A49T, A57Y, I58F, I101A", "VL": "B1 VL with L2I, N30T, Y71F, N92H, T93M"}, "B18": {"name": "Mu_10F07_VH (SEQ ID NO: 39)_Y107A (antibody, V domains shown)", "VH": "B1 VH with A49T, A57Y, I58F, Y107A", "VL": "B1 VL with L2I, N30T, Y71F, N92H, T93M"}, "B19": {"name": "Mu_10F07_VL (SEQ ID NO: 41)_L33A (antibody, V domains shown)", "VH": "B1 VH with A49T, A57Y, I58F", "VL": "B1 VL with L2I, N30T, L33A, Y71F, N92H, T93M"}, "B20": {"name": "Mu_10F07_VL (SEQ ID NO: 41)_Y50A (antibody, V domains shown)", "VH": "B1 VH with A49T, A57Y, I58F", "VL": "B1 VL with L2I, N30T, Y50A, Y71F, N92H, T93M"}, "B21": {"name": "Mu_10F07_VL (SEQ ID NO: 41)_T53A (antibody, V domains shown)", "VH": "B1 VH with A49T, A57Y, I58F", "VL": "B1 VL with L2I, N30T, T53A, Y71F, N92H, T93M"}, "B22": {"name": "Mu_10F07_VL (SEQ ID NO: 41)_W96A (antibody, V domains shown)", "VH": "B1 VH with A49T, A57Y, I58F", "VL": "B1 VL with L2I, N30T, Y71F, N92H, T93M, W96A"}, "B23": {"name": "Mu_10F07_VL (SEQ ID NO: 41)_T97A (antibody, V domains shown)", "VH": "B1 VH with A49T, A57Y, I58F", "VL": "B1 VL with L2I, N30T, Y71F, N92H, T93M, T97A"}, "B24": {"name": "Mu_19F07_VH (SEQ ID NO: 47)_Y33A (antibody, V domains shown)", "VH": "EVKLVESEGGLVQPGSSMKLSCTASGFTFSDYAMAWVRQVPEKGLEWVANINYDGSSTYYLDSLKSRFIISRDNAKNILYLQMSSLKSEDTATYYCARGLTWDFDVWGTGTTVTVSS", "VL": "DIVMTQSHKFMSPSVGDRVSITCKASQDVDTAVAWYQQKPGQSPKLLIYLASTRHTGVPDRFTGSGSGTDFTLTISNVQSEDLADYFCQQYSRFPLTFGAGTKLELKR"}, "B25": {"name": "Mu_19F07_VH (SEQ ID NO: 47)_S56A (antibody, V domains shown)", "VH": "B24 VH with A33Y, S56A", "VL": "B24 VL"}, "B26": {"name": "Mu_19F07_VH (SEQ ID NO: 47)_Y59A (antibody, V domains shown)", "VH": "B24 VH with A33Y, Y59A", "VL": "B24 VL"}, "B27": {"name": "Mu_19F07_VH (SEQ ID NO: 47)_Y60A (antibody, V domains shown)", "VH": "B24 VH with A33Y, Y60A", "VL": "B24 VL"}}, "note": "Residue numbers refer to the chain shown, from its start."}
{"molecular_target": "T1, ANTIBODY EXPRESSION CONTROL", "T1 construct": "also called mouse anti-canine antibody (capture reagent of the expression control ELISA)", "experiment": "SPR Biacore, expression control", "description": "The affinity with which candidate mAbs bind canine, feline, and human (SEQ ID NO: 122; Human_OSMR) (R&D Systems, Minneapolis, Minn.) OSMR was determined using surface plasmon resonance (SPR) on a Biacore system (Biacore Life Sciences (GE Healthcare), Uppsala, Sweden). To avoid affinity differences associated with differential surface preparation that can occur when immobilizing antibodies to surfaces; OSMR from each species was directly conjugated to individual surfaces. Immobilization was obtained by amine coupling 5 μg/mL OSMR using N-hydroxysuccinimide (NHS)/1-Ethyl-3-(3-dimethylaminopropyl) carbodiimide (EDC) chemistry. Chips were quenched with ethanolamine and the affinity with which all candidate mAbs bound to the immobilized OSMR was evaluated. All curves were fit to a 1:1 model. […] Results for affinity measurements are described herein.\nData from an ELISA represents an equilibrium state where the antibody is allowed to associate and dissociate over a one-hour period resulting in steady-state binding. Using Biacore, the target protein is immobilized to a surface and the antibody is passed over this surface in a mobile liquid phase. Protein-protein interaction is determined from changes in the surface resonance which allows for calculation of association (kₐ), disassociation (kd), and affinity constant (KD). While not wishing to be bound to one hypothesis we present data from ELISA and Biacore experiments, using the same preparation of antibody, that may result in agreement between the two methods with respect to binding but also may show contradictory results due to the nature of the binding kinetics and different assay dynamics. The data presented in Table A (in combination with experimental results from yeast display mutational analysis in Example 21) allow for the definition of a structure:function relationship to be defined between the anti-OSMR antibodies described here and their ability to bind and block IL-31 and OSM-mediated signaling through the OSMR receptor.", "units": {"Kd": "pM", "koff": "s⁻¹", "kon": "M⁻¹ s⁻¹"}}
{"binder": "B1", "Kd": 208, "koff": "6.34e-05", "kon": 305000}
{"binder": "B2", "Kd": 147, "koff": "4.52e-05", "kon": 307000}
{"binder": "B3", "Kd": 219, "koff": "6.88e-05", "kon": 314000}
{"binder": "B4", "Kd": 78.6, "koff": "2.35e-05", "kon": 300000}
{"binder": "B5", "Kd": 172, "koff": "5.4e-05", "kon": 314000}
{"binder": "B6", "Kd": 172, "koff": "5.33e-05", "kon": 311000}
{"binder": "B7", "Kd": 138, "koff": "4.66e-05", "kon": 338000}
{"binder": "B8", "Kd": 294, "koff": "8.76e-05", "kon": 298000}
{"binder": "B9", "Kd": 317, "koff": "8.91e-05", "kon": 281000}
{"binder": "B10", "Kd": 257, "koff": "7.96e-05", "kon": 310000}
{"binder": "B11", "Kd": 249, "koff": "7.12e-05", "kon": 286000}
{"binder": "B12", "Kd": 306, "koff": "8.96e-05", "kon": 292000}
{"binder": "B13", "Kd": 257, "koff": "7.59e-05", "kon": 296000}
{"binder": "B14", "Kd": 250, "koff": "7.63e-05", "kon": 305000}
{"binder": "B15", "Kd": 345, "koff": "9.76e-05", "kon": 283000}
{"binder": "B16", "Kd": 1010, "koff": 0.000118, "kon": 117000}
{"binder": "B17", "Kd": 445, "koff": "4.49e-05", "kon": 101000}
{"binder": "B18", "Kd": 446, "koff": "4.44e-05", "kon": 99500}
{"binder": "B19", "Kd": 812, "koff": "8.43e-05", "kon": 104000}
{"binder": "B20", "Kd": 600, "koff": 0.000105, "kon": 174000}
{"binder": "B21", "Kd": 2070, "koff": 0.000275, "kon": 132000}
{"binder": "B22", "Kd": 884, "koff": "9.49e-05", "kon": 107000}
{"binder": "B23", "Kd": 805, "koff": "8.07e-05", "kon": 100000}
{"binder": "B24", "Kd": 202, "koff": "6.08e-05", "kon": 301000}
{"binder": "B25", "Kd": 4080, "koff": 0.000646, "kon": 159000}
{"binder": "B26", "Kd": 359, "koff": 0.000116, "kon": 324000}
{"binder": "B27", "Kd": 4060, "koff": 0.00061, "kon": 150000}
